According to publication PMC314469, “Protein Interaction Networks by Proteome Peptide Scanning” (PLoS Biology, 2004):

T1: Boi1 SH3 (BOI1_YEAST), P38041
T1 chain: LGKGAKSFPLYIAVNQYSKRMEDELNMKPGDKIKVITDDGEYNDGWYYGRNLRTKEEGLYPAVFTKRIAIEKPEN

T2: Yhr016c SH3 (YSC84_YEAST), P32793
T2 chain: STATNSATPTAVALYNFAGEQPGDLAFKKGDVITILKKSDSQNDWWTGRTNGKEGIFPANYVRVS

T3: Boi2 SH3 (BOI2_YEAST), P39969
T3 chain: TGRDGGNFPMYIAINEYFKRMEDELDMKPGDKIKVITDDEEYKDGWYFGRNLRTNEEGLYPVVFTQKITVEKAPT

T4: Myo5 SH3 (MYO5_YEAST), Q04439
T4 chain: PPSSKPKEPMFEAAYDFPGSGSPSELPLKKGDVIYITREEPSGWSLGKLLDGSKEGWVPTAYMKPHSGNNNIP

T5: Rvs167 SH3 (RV167_YEAST), P39743
T5 chain: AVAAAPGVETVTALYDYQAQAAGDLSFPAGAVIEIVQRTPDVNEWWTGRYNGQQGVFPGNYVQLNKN

T6: Yfr024 SH3 (LSB3_YEAST), P43603
T6 chain: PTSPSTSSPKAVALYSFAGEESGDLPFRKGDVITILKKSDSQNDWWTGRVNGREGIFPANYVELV


Legend:
Assay in all cases: SPOT array
[1] = target: T1, Boi1 SH3 (BOI1_YEAST), P38041
[2] = target: Sho1 SH3 (SHO1_YEAST), P40073
Sho1 SH3 (SHO1_YEAST), P40073, sequence (P40073 295-366): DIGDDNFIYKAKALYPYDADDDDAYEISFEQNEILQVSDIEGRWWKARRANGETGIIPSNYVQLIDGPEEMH

[3] = target: T2, Yhr016c SH3 (YSC84_YEAST), P32793
[4] = target: T3, Boi2 SH3 (BOI2_YEAST), P39969
[5] = target: T4, Myo5 SH3 (MYO5_YEAST), Q04439
[6] = target: T5, Rvs167 SH3 (RV167_YEAST), P39743
[7] = target: T6, Yfr024 SH3 (LSB3_YEAST), P43603

normalised SPOT signal, Boehringer light units (BLU); mean over the file's lines of this peptide [1]	normalised SPOT signal, Boehringer light units (BLU); mean over the file's lines of this peptide [2]	normalised SPOT signal, Boehringer light units (BLU); mean over the file's lines of this peptide [3]	normalised SPOT signal, Boehringer light units (BLU); mean over the file's lines of this peptide [4]	normalised SPOT signal, Boehringer light units (BLU); mean over the file's lines of this peptide [5]	normalised SPOT signal, Boehringer light units (BLU); mean over the file's lines of this peptide [6]	normalised SPOT signal, Boehringer light units (BLU); mean over the file's lines of this peptide [7]	Binder
441	225	40	102	362	83.7	546	SRHLKLVPSTPMDI [YBR128C 258-271]
1740	146	0	23.7	153	129	122	SAKSKSRPNTPGSD [YIR007W 739-752]
210	65.9	38.8	48.5	189	61.3	126	SKYNRQHPANPAAA [YPL247C 221-234]
73.9	14.3	25.1	33.7	118	14.4	73.4	DEFNRNTPPQPSLL [YPL084W 526-539]
99.5	93.3	32.4	24.9	112	31.8	132	AVVYKLKPYIPSLS [YGR284C 61-74]
0	33.5	19.2	16.6	231	52.7	62.3	DETRKLTPSSPGDD [YPR173C 368-381]
187	23.4	74	0.5	57.8	25.4	34	DDIIKDHPHIPNGQ [YOR360C 470-483]
91.8	27.7	10	27	285	30.2	12.9	DENSKWQPSDPFTM [YOL157C 233-246]
59.6	35.8	19	15	209	46.5	23.2	SFKTKFAPEAPDLF [YDL195W 303-316]
386	35.8	47.2	45.5	244	36.2	304	SNRARYLPQNPDII [YBR195C 132-145]
57.2	54.9	9.2	1	106	26.2	0.5	DEPIRYAPGDPIEK [YNL132W 471-484]
26.3	187	79.8	40.7	343	90.4	1300	SWHPKTIPKQPMEI [YGL197W 260-273]
41	27.6	60.1	25.9	49.2	84.8	112	SNYSKIFPGIPISL [YOR245C 211-224]
638	58.5	9.1	0	208	46.2	157	SLRARNGPVPPVHI [YIR027C 235-248]
19.1	23.2	18.2	18.9	153	17.2	120	DDNVRPSPISPSIN [YLR337C 513-526]
37.1	49.5	22.9	16.1	127	32.9	50.8	DEALRYSPDAPIVL [YNL090W 103-116]
